{"source": "patent US20260062456A1", "binders": {"B1": {"name": "variant PD-L1 IgV-Fc A33D/S75P (IgV SEQ ID NO 285) (Fc fusion)", "chain": "FTVTVPKDLYVVEYGSNMTIECKFPVEKQLDLDALIVYWEMEDKNIIQFVHGEEDLKVQHSSYRQRARLLKDQLPLGNAALQITDVKLQDAGVYRCVISYGGADYKRITVKVNAAAAEPKSSDKTHTCPPCPAPELLGGPSVFLFPPKPKDTLMISRTPEVTCVVVDVSHEDPEVKFNWYVDGVEVHNAKTKPCEEQYGSTYRCVSVLTVLHQDWLNGKEYKCKVSNKALPAPIEKTISKAKGQPREPQVYTLPPSREEMTKNQVSLTCLVKGFYPSDIAVEWESNGQPENNYKTTPPVLDSDGSFFLYSKLTVDKSRWQQGNVFSCSVMHEALHNHYTQKSLSLSPGK"}, "B2": {"name": "non-stack variant CD155 IgV-Fc control (P18S/S65W/S67A/L104Q/G111R) (Fc fusion)", "chain": "WPPPGTGDVVVQAPTQVSGFLGDSVTLPCYLQVPNMEVTHVSQLTWARHGESGSMAVFHQTQGPWYAESKRLEFVAARLGAELRNASLRMFGLRVEDEGNYTCQFVTFPQRSRSVDIWLRVLAAAEPKSSDKTHTCPPCPAPELLGGPSVFLFPPKPKDTLMISRTPEVTCVVVDVSHEDPEVKFNWYVDGVEVHNAKTKPCEEQYGSTYRCVSVLTVLHQDWLNGKEYKCKVSNKALPAPIEKTISKAKGQPREPQVYTLPPSREEMTKNQVSLTCLVKGFYPSDIAVEWESNGQPENNYKTTPPVLDSDGSFFLYSKLTVDKSRWQQGNVFSCSVMHEALHNHYTQKSLSLSPGK"}, "B3": {"name": "variant PD-L1 IgV-Fc P6S, N45T, N78I, I83T (Fc fusion)", "chain": "B1 chain with P6S, D33A, N45T, P75S, N78I, I83T, V97M"}, "B4": {"name": "variant PD-L1 IgV-Fc A33D, N45T, N78I (Fc fusion)", "chain": "B1 chain with N45T, P75S, N78I, V97M"}, "B5": {"name": "variant PD-L1 IgV-Fc I20L, N45T, V110M (Fc fusion)", "chain": "B1 chain with I20L, D33A, N45T, P75S, V97M, V110M"}, "B6": {"name": "variant PD-L1 IgV-Fc A33D, V50A (Fc fusion)", "chain": "B1 chain with V50A, P75S, V97M"}, "B7": {"name": "variant PD-L1 IgV-Fc S75P, K106R (Fc fusion)", "chain": "B1 chain with D33A, V97M, K106R"}, "B8": {"name": "variant PD-L1 IgV-Fc A33D, S75P (SEQ ID NO 285) (Fc fusion)", "chain": "B1 chain"}, "B9": {"name": "variant PD-L1 IgV-Fc A33D, S75P, D104G (Fc fusion)", "chain": "B1 chain with V97M, D104G"}}, "note": "Changes are numbered by the printed parent chain. Numbers in names are those of the source.", "data": [{"molecular_target": "human PD-1 stably expressed on Jurkat/IL-2 reporter cells (Jurkat/PD-1 cells) (human) (UniProt Q15116)", "sequence (Q15116 25-288 limits assumed)": "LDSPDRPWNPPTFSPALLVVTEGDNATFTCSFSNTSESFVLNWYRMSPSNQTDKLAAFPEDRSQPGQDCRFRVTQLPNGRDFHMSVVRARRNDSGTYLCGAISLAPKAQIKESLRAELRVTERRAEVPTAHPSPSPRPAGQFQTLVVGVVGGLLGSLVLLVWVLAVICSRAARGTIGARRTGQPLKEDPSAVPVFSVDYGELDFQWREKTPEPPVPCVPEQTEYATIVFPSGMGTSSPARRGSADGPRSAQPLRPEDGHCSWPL", "experiment": "flow cytometry, Jurkat/PD-1 cells, MFI vs wildtype PD-L1 IgV-Fc", "units": {"Fold increase over wildtype PD-L1 IgV-Fc": "fold"}, "values": [{"binder": "B1", "Fold increase over wildtype PD-L1 IgV-Fc": 0.1}]}, {"molecular_target": "TIGIT/CD112R/PD1 (Jurkat/PD-1/TIGIT cells carrying PD-1, TIGIT and endogenous CD112R)", "experiment": "flow cytometry, Jurkat/PD-1/TIGIT cells", "units": {"MFI at 33.3nM": "MFI"}, "values": [{"binder": "B2", "MFI at 33.3nM": 961}]}, {"molecular_target": "human PD-1 and human TIGIT both stably expressed on Jurkat cells (Jurkat/PD-1/TIGIT cells)", "experiment": "flow cytometry, Jurkat/PD-1/TIGIT cells, 20 nM", "units": {"MFI at 20 nM": "MFI"}, "values": [{"binder": "B2", "MFI at 20 nM": 7910}]}, {"molecular_target": "PD-1 (human) (UniProt Q15116)", "sequence (Q15116 25-288)": "as the sequence (Q15116 25-288 limits assumed) above", "experiment": "cell-based or functional assay", "units": {"Average Relative Luminescence Units": "RLU", "Fold increase in IL2 reporter signal": "fold"}, "values": [{"binder": "B3", "Average Relative Luminescence Units": 2250, "Fold increase in IL2 reporter signal": 1.01}, {"binder": "B4", "Average Relative Luminescence Units": 1970, "Fold increase in IL2 reporter signal": 0.89}, {"binder": "B5", "Average Relative Luminescence Units": 2210, "Fold increase in IL2 reporter signal": 0.99}, {"binder": "B6", "Average Relative Luminescence Units": 2250, "Fold increase in IL2 reporter signal": 1.01}, {"binder": "B7", "Average Relative Luminescence Units": 2130, "Fold increase in IL2 reporter signal": 0.95}, {"binder": "B8", "Average Relative Luminescence Units": 2170, "Fold increase in IL2 reporter signal": 0.97}, {"binder": "B9", "Average Relative Luminescence Units": 2170, "Fold increase in IL2 reporter signal": 0.97}]}, {"molecular_target": "human PD-1 stably expressed on Jurkat/IL-2 reporter cells (Jurkat/PD-1 cells) (human) (UniProt Q15116)", "experiment": "flow cytometry, Jurkat/PD-1 cells", "units": {"MFI at 50 nM": "MFI"}, "values": [{"binder": "B1", "MFI at 50 nM": 306}]}]}
